In the supplement of paper PMC10567573:

B1: C19orf51 (parent)
chain: FAPQTGARPSETFARFCKSQESAL

Variants of: B1
Test: protein stability index of a GFP-peptide fusion (GPS, HEK-293T) (PSI 1-6); higher = more stable
Conditions: c terminus: a fixed tail appended
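Also: lentivirally expressed fusions sorted by FACS into six bins by GFP to DsRed ratio, PSI derived from sequencing read proportions per bin multiplied by bin number.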

Variant | protein stability index
F16A | 2.44
F16E | 1.54
F16L | 3.42
F16S | 2.79
F16I | 1.89
F16H | 2.07
F16T | 2.52
F16Q | 1.54
F16R | 1.4
F16G | 2.38
F16K | 2.31
F16N | 1.93
F16D | 1.77
F16C | 2.62
K18N | 1.3
K18D | 1.1
K18Y | 1.99
K18E | 1.92
K18P | 2.61
K18L | 2.2
K18T | 2.6
K18Q | 1.81
K18V | 2.45
K18C | 2.44

Variant | protein stability index
K18S | 2.39
K18G | 2.56
K18H | 2.19
K18I | 2.29
F13A | 1.89
F13S | 1.41
F13Q | 2.12
F13P | 1.07
F13C | 3.95
F13D | 1.86
F13L | 2.54
F13T | 1.82
F13I | 1.7
F13M | 1.92
F13R | 1.94
F13Y | 1.49
F13H | 1.48
F13N | 2.49
F13K | 2.31
F13E | 1.98
F13V | 2.92
F13G | 2
P9T | 3.29
P9C | 3.58

Variant | protein stability index
P9N | 2.23
P9I | 2.25
P9M | 2.92
P9D | 1.23
P9W | 1.65
P9Y | 3.62
P9R | 2.62
P9K | 2.47
P9L | 1.06
P9E | 1.18
P9Q | 2.77
P9H | 2.82
P9G | 2.57
S10R | 2.34
S10I | 2.32
S10N | 1.72
S10F | 2.11
S10T | 2.25
S10Q | 1.96
S10C | 2.34
S10G | 2.46
S10A | 2.32
S10L | 1.58
S10H | 2.76

Variant | protein stability index
S10E | 1.43
S10K | 2.62
S22E | 1.58
S22F | 2.18
S22V | 1.8
S22G | 3.57
S22K | 1.33
S22D | 2.04
S22T | 1.88
S22Y | 1.93
S22R | 1.51
S22L | 2.08
S22H | 1.98
S22W | 1
S22C | 2.31
S22I | 3.24
S22P | 3.4
R8W | 2.52
R8V | 2.1
R8Y | 1.81
R8T | 1.89
C17H | 1.2
C17L | 1.42
C17V | 2.31

Variant | protein stability index
C17D | 1.68
C17M | 3.12
C17Y | 2.92
C17E | 1.09
C17G | 3.94
C17Q | 1.35
C17A | 2.9
C17N | 2.79
C17P | 1.9
C17I | 2.98
C17S | 1.74
C17W | 3
R15N | 3.83
R15Q | 1.16
R15L | 2.84
R15E | 2.65
R15K | 2.48
R15F | 1.72
R15D | 1.27
R15H | 1.69
R15V | 3.42
R15T | 2.14
R15C | 3.88
R15A | 2.94

Variant | protein stability index
R15I | 2.75
R15S | 1.08
R15G | 2.37
S19E | 1.1
S19W | 1.75
S19I | 2.35
S19R | 5.04
S19N | 1.31
S19D | 2.2
S19Q | 1.43
S19A | 2.85
S19C | 3.45
S19G | 2.82
S19K | 2.35
S19P | 1.77
S19T | 1.66
S19H | 4.27
A23C | 1.55
A23P | 2.46
A23H | 3.08
A23G | 2.32
A23I | 1.89
A23V | 1.68
A23R | 3.52

Variant | protein stability index
A23L | 2.84
A23N | 3.57
A23F | 2.44
A23Q | 1.82
A23T | 2.07
A23W | 2.29
A23M | 2.11
A23K | 1.75
A14Y | 3.2
A14Q | 2.63
A14L | 2.12
A14N | 1.44
A14F | 1.33
A14I | 3.27
A14C | 1.69
A14D | 1.69
A14G | 1.74
A14S | 1.89
A14V | 2.17
A14R | 1.82
A14E | 1.77
A14T | 2.09
A14M | 3.45
